Measured values: paper PMC2918618, “Characterization of the TnsD-attTn7 complex that promotes site-specific insertion of Tn7” (Mobile DNA, 2010)
Numbering of substitutions follows the chain as printed.

Key:
Assay in all cases: EMSA; Gel-shift buffer not given (as described in ref. 6); TnsD stored in 500 mM KCl, 50 mM Tris-HCl pH 8.0, 1 mM EDTA, 2 mM DTT, 25% glycerol
TnsD P417L = target: T1, TnsD P417L (Escherichia coli (transposon Tn7), UniProt P13991 1-508, P417L); settings: protein: recombinant; tags: intein-chitin tag, cleaved with DTT
T1 sequence: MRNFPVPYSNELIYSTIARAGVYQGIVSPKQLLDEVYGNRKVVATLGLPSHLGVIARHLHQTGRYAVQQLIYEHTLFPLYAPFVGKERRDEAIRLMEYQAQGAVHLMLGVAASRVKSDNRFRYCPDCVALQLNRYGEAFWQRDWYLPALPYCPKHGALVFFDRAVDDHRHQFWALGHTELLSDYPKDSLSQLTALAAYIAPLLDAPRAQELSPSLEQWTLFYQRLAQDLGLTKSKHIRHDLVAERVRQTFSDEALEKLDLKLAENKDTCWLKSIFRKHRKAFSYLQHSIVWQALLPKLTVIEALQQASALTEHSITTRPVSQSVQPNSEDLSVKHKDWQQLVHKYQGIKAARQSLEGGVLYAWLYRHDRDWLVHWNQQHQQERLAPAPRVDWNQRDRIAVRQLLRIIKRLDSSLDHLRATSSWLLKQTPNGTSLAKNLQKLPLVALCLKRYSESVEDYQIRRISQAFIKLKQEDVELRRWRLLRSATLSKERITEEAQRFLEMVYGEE

TnsD Q340Z = target: T2, TnsD Q340Z (Escherichia coli (transposon Tn7), UniProt P13991 1-339); settings: protein: recombinant
T2 sequence: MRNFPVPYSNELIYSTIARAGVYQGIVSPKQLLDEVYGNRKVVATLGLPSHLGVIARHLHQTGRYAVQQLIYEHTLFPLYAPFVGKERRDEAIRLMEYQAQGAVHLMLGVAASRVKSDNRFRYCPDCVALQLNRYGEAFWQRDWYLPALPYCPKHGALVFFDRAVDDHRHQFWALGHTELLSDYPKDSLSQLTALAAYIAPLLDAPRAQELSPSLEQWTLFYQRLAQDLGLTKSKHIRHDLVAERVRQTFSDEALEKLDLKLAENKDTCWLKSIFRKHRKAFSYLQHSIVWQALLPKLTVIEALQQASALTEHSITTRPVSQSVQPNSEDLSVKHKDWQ

TnsD G109E = target: T3, TnsD G109E (Escherichia coli (transposon Tn7), UniProt P13991 1-508, G109E); settings: protein: recombinant; tags: intein-chitin tag, cleaved with DTT
T3 sequence: T1 sequence with G109E, L417P

TnsD P147L = target: T4, TnsD P147L (Escherichia coli (transposon Tn7), UniProt P13991 1-508, P147L); settings: protein: recombinant; tags: intein-chitin tag, cleaved with DTT
T4 sequence: T1 sequence with P147L, L417P

TnsD A497I = target: T5, TnsD A497I (Escherichia coli (transposon Tn7), UniProt P13991 1-508, A497I); settings: protein: recombinant; tags: intein-chitin tag, cleaved with DTT
T5 sequence: T1 sequence with L417P, A497I

B1: attTn7 wt (+23 to +58) (dsDNA)
DNA 1: CCGCGTAACCTGGCAAAATCGGTTACGGTTGAGTAA
DNA 2: TTACTCAACCGTAACCGATTTTGCCAGGTTACGCGG
- binding signal (TnsD P417L): 0.07 relative to wt
- binding signal (TnsD Q340Z): < 0.05 relative to wt
- binding signal (TnsD G109E): 0.05 relative to wt
- binding signal (TnsD P147L): 0.07 relative to wt
- binding signal (TnsD A497I): 0.05 relative to wt
